In article PMC5347031, “Characterization of long and stable de novo single alpha-helix domains provides novel insight into their stability” (Scientific Reports, 2017):

Target: the molecule itself
Assay: SEC; Superdex 75, 200 μl of 20-40 μM protein, 150 mM NaCl, 10 mM sodium phosphate, 0.03% NaN3, pH 7.4, 0.5 ml/min

B1: EK2 de novo polypeptide (AEEAKKA repeats) (other)
chain: SAEEAKKAAEEAKKAAEEAKKAAEEAKKAAEEAKKAAEEAKKAAEEAKKAAEEAKKAAEEAKKAAEEAKKAAEEAKKAAEEAKKAAEEAKKAAEEAKW
stoichiometry N: ~2
